This note sets out measurements from article PMC4039369, “Nucleotide degradation and ribose salvage in yeast” (Molecular Systems Biology, 2013).

Substrate in data set [1]: Nc1ccn([C@@H]2O[C@H](COP(=O)(O)O)[C@@H](O)[C@H]2O)c(=O)n1
Briefly: phosphate release (phosphatase) assay, Michaelis-Menten fit. Format: biochemical, Saccharomyces cerevisiae. The settings on record: 5 mM MgCl2; substrate range 0.001-9.5 mM. An excerpt: phosphate release (phosphatase) assay, Michaelis-Menten fit on Phm8 | Kinetic characterization of Phm8 and Sdt1 toward their most preferred substrate CMP

Substrate in data set [2]: Nc1ccn([C@@H]2O[C@H](COP(=O)(O)O)[C@@H](O)[C@H]2O)c(=O)n1
The description is as above. In kind it is biochemical, Saccharomyces cerevisiae. To be noted: 5 mM MgCl2; substrate range 0.001-9.5 mM. An excerpt:
phosphate release (phosphatase) assay, Michaelis-Menten fit on Sdt1 | Kinetic characterization of Phm8 and Sdt1 toward their most preferred substrate CMP
The source holds these as a separate data set.

B1: Phm8 (Saccharomyces cerevisiae S288C) (protein)
chain: MTIAKDYRTIYRNQIKKQIRLNQEHLQSLTHLGSQINFEVDPPKLPDPDPARKVFFFDIDNTLYRKSTKVQLLMQQSLSNFFKYELGFDDDEAERLIESYYQEYGLSVKGLIKNKQIDDVLQYNTFIDDSLPLQDYLKPDWKLRELLINLKKKKLGKFDKLWLFTNSYKNHAIRCVKILGIADLFDGITYCHYDRPIEEEFICKPDPKFFETAKLQSGLSSFANAWFIDDNESNVRSALSMGMGHVIHLIEDYQYESENIVTKDHKNKQQFSILKDILEIPLIMDVEVYRPSSIAIKEMEELEEEGEAVNWSNQQINVQSS
As a reminder, the Km is the concentration of substrate that gives half-maximal velocity. What is called kcat is the maximal rate divided by the concentration of active sites. With B1, in data set [1], the Km is 63 ± 2 µM and the kcat turned out to be 19.8 ± 0.1 s⁻¹.

B2: Sdt1 (Saccharomyces cerevisiae S288C) (protein)
chain: MTVEYTASDLATYQNEVNEQIAKNKAHLESLTHPGSKVTFPIDQDISATPQNPNLKVFFFDIDNCLYKSSTRIHDLMQQSILRFFQTHLKLSPEDAHVLNNSYYKEYGLAIRGLVMFHKVNALEYNRLVDDSLPLQDILKPDIPLRNMLLRLRQSGKIDKLWLFTNAYKNHAIRCLRLLGIADLFDGLTYCDYSRTDTLVCKPHVKAFEKAMKESGLARYENAYFIDDSGKNIETGIKLGMKTCIHLVENEVNEILGQTPEGAIVISDILELPHVVSDLF
With B2, in data set [2], the Km was 1700 ± 200 µM and the kcat worked out at 0.54 ± 0.02 s⁻¹.
